In paper PMC11929074, “An in vitro platform for the enzymatic characterization of the rhomboid protease RHBDL4” (The Journal of Biological Chemistry, 2025):
“Also recorded” adds a separate entry of the source. The star is where a group is joined. Dnp = O=[N+]([O-])c1ccc(*)c([N+](=O)[O-])c1; Mca = COc1ccc2c(CC(=O)*)cc(=O)oc2c1

How the values were obtained:
recombinant human RHBDL4 [1] = target: T1, recombinant human RHBDL4 (Homo sapiens, UniProt Q8TEB9); test: FRET-based cleavage assay with fluorescent (IQ / KSp207) substrates; format: biochemical; details: for RHBDL4-catalyzed activity towards GlpG/PARL model substrates: in vitro cleavage assay; for kcat: average ± S.E.M.
T1 construct: The entire RHBDL4 and RHBDL4-S144A cDNAs were subcloned into the pcDNA3.1 vector; 6xHis (C, cleaved yes); made in house; host or cells: Freestyle 293-F cells (transient transfection, pcDNA3.1-HisA)
T1 sequence (Q8TEB9 1-315): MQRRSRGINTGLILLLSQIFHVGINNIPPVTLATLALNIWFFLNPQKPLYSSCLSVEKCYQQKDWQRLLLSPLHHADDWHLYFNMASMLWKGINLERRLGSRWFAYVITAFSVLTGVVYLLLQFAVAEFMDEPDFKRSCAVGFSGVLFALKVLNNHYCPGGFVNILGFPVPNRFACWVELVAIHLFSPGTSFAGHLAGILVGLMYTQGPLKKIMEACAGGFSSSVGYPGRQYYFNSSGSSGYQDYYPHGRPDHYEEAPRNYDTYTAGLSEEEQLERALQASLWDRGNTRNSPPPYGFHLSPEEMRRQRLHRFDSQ
Protocol: Figure 2 Kinetic characterization of recombinant human RHBDL4.A, schematic representation of the FRET-based cleavage assay using internally quenched (IQ) substrates. B, saturation curves of RHBDL4 using the fluorescent IQ substrates, IQ6, IQ41, and IQ46. C, pH dependence of the RHBDL4 protease activity using substrates IQ6, IQ41, and IQ46. D, salt concentration dependence of the RHBDL4 protease activity using substrates IQ6, IQ41, and IQ46. All the assays were performed in triplicate, and data points are represented by the average ± S.E.M. TEXT PRINTED IN THE PICTURE: (B) IQ 6: KM(μM) 10.73±2; Kcat(hr^-1) 7.33±0.6 | (B) IQ 41: KM(μM) 5.63±2; Kcat(hr^-1) 2.41±0.6 | (B) IQ 46: KM(μM) 7.19±1; Kcat(hr^-1) 3.62±0.8
(§1) The reaction setup in our FRET assay enabled the direct determination of Michaelis–Menten kinetic parameters Km and kcat for the cleavage of IQ6, IQ41, and IQ46 by RHBDL4. Our fluorescence reading data were converted to μM/h using the standard calibration curve for all three IQ substrates, and the correction factor for the inner filter effect was applied. We confirmed that purified RHBDL4 followed Michaelis–Menten kinetics with KmIQ6=10.73±2μΜ , KmIQ41=5.63±2μΜ , and KmIQ46=7.19±1μΜ and kcatIQ6=7.33±0.6h^−1 , kcatIQ41=2.41±0.6h^−1 , and kcatIQ46=3.62±0.08h^−1 (Figs. 2B and S2B).
Our FRET-based assay is a suitable platform for optimizing conditions that enhance RHBDL4 protease activity. To this end, we selected the optimal pH for RHBDL4 protease activity and performed FRET-based assays with IQ6, IQ41, and IQ46 at a pH range of 5 to 10. […] The optimal salt concentration for the RHBDL4 protease activity was also tested in the range of 100 to 300 mM (Fig. 2D). We conclude that with the IQ6, IQ41, and IQ46 substrates, RHBDL4 had satisfactory activity in a salt concentration range of 100 to 300 mM.
Figure 5 In vitro inhibition of RHBDL4 activity with TMED7-derived peptidyl α-ketoamides.A, schematic representation of the peptidyl-α-ketoamide inhibitor, compound 3 and 4. B, representative inhibition curve derived from measuring rates of RHBDL4 proteolysis of the fluorescent substrate IQ6 with increasing concentrations of compound 3. C, same as (B), except inhibition curve was derived from using increasing concentrations of compound 4. […] Reactions were quenched with 1 RLaemmli buffer and loaded on 12% SDS-PAGE gel. Post-transfer membranes were visualized using a fluorescence Cy3 filter and by Western blotting using an α-His antibody. E, saturation curve of RHBDL4 using fluorescent substrate, KSp207. For (B and C), all inhibitors were pre-incubated with RHBDL4 for 1 h and allowed to react with the IQ6 substrate for 2 h. […]
(§2) The enzymatic assay was performed as previously described (Arutyunova et al., 2014, ([26])). […] The FRET-based cleavage assay was conducted in a fluorescence multiwell plate reader (SynergyMx, BioTek). Upon excitation at 320 nm, the emission intensity at 400 nm was recorded for 2 h at minimal intervals under shaking conditions and plotted using the GraphPad PRISM software. The initial velocities were defined as the slopes of the curve of the generated product as a function of time. The plots of the generated product against the corresponding substrate concentration were fitted with the Michaelis–Menten equation. Catalytic parameters were extrapolated using GraphPad PRISM. […] The samples were desalted using C18 tips (Rainin), eluted in 80% acetonitrile, and dried down in a vacuum centrifuge prior to mass spectrometry analysis.
All the calculations for Km, Vmax, and Kcat for RHBDL4 and its mutants were performed using GraphPad PRISM.

[2] = system: mammalian rhomboid protease PARL; details: ref [26], [27]; cited from earlier work
recombinant human RHBDL4 [3] = target: T1, recombinant human RHBDL4; test: Mass spectrometry identification of cleavage sites in IQ6; format: biochemical; details: 1.5 μM RHBDL4, 10 μM IQ6, 4 h, room temperature, quenched with 8 M GuHCl; MS/MS
Protocol: as §2
Supplemental Information 4. […] (B) Depiction of IQ6 cleavage sites as determined from tandem mass spectrometry (MS/MS). (C) Peptide sequence of GlpG-derived and PARL-derived fluorescent substrates IQ4 and IQ15, respectively. (D) Activity profiles of the wild-type RHBDL4 and mutant RHBDL4-S144A, as measured by cleavage of the fluorescent substrates IQ4 and IQ15. Assays was performed in triplicate, and data points are represented by the average ± S.E.M.

RHBDL4-Ax3G = test: FRET-based cleavage of IQ6 by RHBDL4-Ax3G mutant; format: biochemical, human; details: IQ6 substrate; n = 3
Source text: (§3) All mutants had robust expression on day 3 post-transfection of Freestyle 293-F cells, when cells were harvested for purification. RHBDL4 contains two motifs that are well conserved among the rhomboid superfamily, the WR motif in L1 and the Gx3G motif in TM domain 6 (Fig. S3, A and B) ([8]). Both motifs are required for RHBDL4-mediated ERAD function (Fleig et al. 2012). We predicted that both AR and Ax3G mutants would result in lower RHBDL4 activity. To that end, RHBDL4-AR and RHBDL4-Ax3G were expressed and purified using affinity Ni-NTA column followed by SEC (Fig. 3, B and C). […]
(§4) Figure 3 Dependence of conserved rhomboid motifs on RHBDL4 protease activity.A, RHBDL4 representation highlighting TM1–6 (in green), the VBM- and UIM-binding motifs (in blue), the conserved rhomboid motifs (WR and Gx3G), and the serine-histidine catalytic dyad (in pink). […] D, activity profiles of the WT RHBDL4 and mutant RHBDL4-S144A, RHBDL4-AR, and RHBDL4-Ax3G proteins, as measured by cleavage of the fluorescent substrate IQ6. […]
(§5) The enzymatic assay was performed as previously described (Arutyunova et al., 2014, ([26])). […] The FRET-based cleavage assay was conducted in a fluorescence multiwell plate reader (SynergyMx, BioTek). Upon excitation at 320 nm, the emission intensity at 400 nm was recorded for 2 h at minimal intervals under shaking conditions and plotted using the GraphPad PRISM software. […]

RHBDL4-S144A = test: FRET-based cleavage by inactive RHBDL4-S144A; format: biochemical, human; details: pH 8, 37 °C
Source text: as §1
Figure 3 Dependence of conserved rhomboid motifs on RHBDL4 protease activity.A, RHBDL4 representation highlighting TM1–6 (in green), the VBM- and UIM-binding motifs (in blue), the conserved rhomboid motifs (WR and Gx3G), and the serine-histidine catalytic dyad (in pink). The table indicates the RHBDL4 region, the conserved rhomboid motifs, and amino acid mutation. The RHBDL4 proteolytic activity. B, size-exclusion chromatography profile of RHBDL4-AR and RHBDL4-Ax3G, being eluted as a monomeric protein. C, coomassie staining and Western blotting using an α-His antibody of concentrated purified RHBDL4-AR and RHBDL4-Ax3G. D, activity profiles of the WT RHBDL4 and mutant RHBDL4-S144A, RHBDL4-AR, and RHBDL4-Ax3G proteins, as measured by cleavage of the fluorescent substrate IQ6. Assay was performed in triplicate (n = 3), and data points are represented by the average ± S.E.M. Statistically significant differences compared to WT RHBDL4 are indicated (pairwise Dunnett's test followed by Bonferroni's post hoc analysis; ∗p < 0.05, n.s., no significance).
as §5

RHBDL4-AR = test: FRET-based cleavage of IQ6 by RHBDL4-AR mutant (WR motif); format: biochemical, human; details: IQ6 substrate; n = 3
Source text: as §3, §4, §5

[4] = system: bacterial rhomboid protease GlpG; details: ref [26], [27]; cited from earlier work

Row | Substance | RHBDL4-catalyzed activity towards GlpG/PARL model substrates (recombinant human RHBDL4 [1]; triplicate) | cleavage by PARL [2] | N-terminal cleavage products (recombinant human RHBDL4 [3]) | kcat (recombinant human RHBDL4 [1]; 37 °C, pH 8.0, triplicate) | cleavage rate/efficiency relative to other substrates (recombinant human RHBDL4 [1]; FRET-based assay) | faster kinetics in comparison to IQ41 (recombinant human RHBDL4 [1]; IQ6 versus IQ41) | faster kinetics in comparison to IQ46 (recombinant human RHBDL4 [1]; IQ6 versus IQ46) | kcat (recombinant human RHBDL4 [1]; Michaelis-Menten, 1.5 μM RHBDL4, 37 °C, 2 h, pH 8.0, 150 mM NaCl, 0.1% DDM, triplicate) | catalytic rate (cleavage rate) (recombinant human RHBDL4 [1]; approximate, discussion) | pH of highest RHBDL4 protease activity (recombinant human RHBDL4 [1]; pH range 5 to 10, triplicate) | salt concentration range with satisfactory activity (recombinant human RHBDL4 [1]; salt tested 100 to 300 mM, triplicate) | enzymatic cleavage activity compared with WT RHBDL4 (RHBDL4-Ax3G) | cleavage by inactive RHBDL4-S144A (increase in fluorescence / activity) (RHBDL4-S144A) | decrease in activity compared with WT RHBDL4 (RHBDL4-AR) | cleavage by GlpG [4]
1 | mca-AVFLSAVAG(dnp) [IQ15, PGAM-derived PARL model substrate mca-…(dnp)] | did not observe any RHBDL4-catalyzed activity | cleave |  |  |  |  |  |  |  |  |  |  |  |  | 
2 | Mca-Arg-Pro-Pro-Gly-Phe-Ser-Ala-Phe-Lys (DNP)-OH (Mca-RPPGFSAFK(Dnp)-OH; SMILES COc1ccc2c(CC(=O)N[C@@H](CCCNC(=N)N)C(=O)N3CCC[C@H]3C(=O)N3CCC[C@H]3C(=O)NCC(=O)N[C@@H](Cc3ccccc3)C(=O)N[C@@H](CO)C(=O)N[C@@H](C)C(=O)N[C@@H](Cc3ccccc3)C(=O)N[C@@H](CCCCNc3ccc([N+](=O)[O-])cc3[N+](=O)[O-])C(=O)O)cc(=O)oc2c1) [IQ6, fluorescent internally quenched substrate mca-…(dnp)] |  |  | mca-RPPGFSA and mca-RPPGFS | 0.00204 ± 0.00017 s⁻¹ | exhibited the highest cleavage rate for RHBDL4 proteolysis; also recorded: maximum activity | three-fold | two-fold | 0.00204 ± 0.00017 s⁻¹ | approximately 7 /h | 8 | 100 to 300 mM | retained enzymatic cleavage activity at levels comparable to WT RHBDL4 | negligible increase in fluorescence; also recorded: negligible activity | ~6 fold | 
3 | mca-RPKPYAvWMK(dnp) [IQ4, GlpG model substrate mca-RPKPYAvWMK(dnp)] | did not observe any RHBDL4-catalyzed activity |  |  |  |  |  |  |  |  |  |  |  |  |  | cleave
